Measured values from patent US11932683B2, “Cellular factors involved in the cytotoxicity of Staphylococcus aureus leukocidins: novel therapeutic targets” (NEW YORK UNIVERSITY, priority 2013, dated 2024).

Experiments:
CXCR1 [1] = biological target: T1, CXCR1 (Homo sapiens, UniProt P25024); assay: Toxin susceptibility of HEK293T cells transfected with chemokine receptor CXCR1; type: cell-based; design: expressed in transfected cells; host or cells: HEK293T; conditions: viability (600 nM) or ethidium bromide permeability (1 hr; HlgAB/HlgCB 20 μg/ml)
T1 sequence (P25024 1-350): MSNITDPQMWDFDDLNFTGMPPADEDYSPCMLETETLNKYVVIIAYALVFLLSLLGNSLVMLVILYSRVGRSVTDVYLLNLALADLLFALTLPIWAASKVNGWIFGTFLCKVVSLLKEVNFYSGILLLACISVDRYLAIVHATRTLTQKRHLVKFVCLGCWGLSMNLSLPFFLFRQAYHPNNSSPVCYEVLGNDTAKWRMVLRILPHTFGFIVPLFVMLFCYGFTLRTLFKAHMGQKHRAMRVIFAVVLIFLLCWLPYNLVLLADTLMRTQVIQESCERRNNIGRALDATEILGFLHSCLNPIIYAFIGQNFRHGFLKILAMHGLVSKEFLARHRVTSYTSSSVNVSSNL

human PMNs [2] = assay: Viability of primary human neutrophils (PMNs) treated with leukotoxins; type: cell-based; conditions: HlgA or hybrid mixed equimolar with HlgB; CellTiter; n=8 donors
DARC = biological target: T2, DARC (Homo sapiens, UniProt Q16570); assay: Toxin susceptibility of HEK293T cells transfected with DARC; type: cell-based; conditions: ethidium bromide permeability (1 hr; HlgAB/HlgCB 20 μg/ml)
T2 construct: expressed in transfected cells; host or cells: HEK293T
T2 sequence (Q16570 1-336): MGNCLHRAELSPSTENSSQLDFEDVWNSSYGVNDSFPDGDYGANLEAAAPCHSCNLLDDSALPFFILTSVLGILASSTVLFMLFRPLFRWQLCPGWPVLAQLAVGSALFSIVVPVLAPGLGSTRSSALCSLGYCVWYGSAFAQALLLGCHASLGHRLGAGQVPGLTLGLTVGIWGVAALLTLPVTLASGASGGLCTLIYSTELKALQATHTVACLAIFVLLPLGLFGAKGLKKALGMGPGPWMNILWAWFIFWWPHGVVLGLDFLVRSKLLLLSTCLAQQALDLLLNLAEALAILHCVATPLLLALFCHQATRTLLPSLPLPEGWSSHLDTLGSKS

CXCR2 [3] = biological target: T3, CXCR2 (Homo sapiens, UniProt P25025); assay: Toxin susceptibility of HEK293T cells transfected with chemokine receptor CXCR2; type: cell-based; design: expressed in transfected cells; host or cells: HEK293T; conditions: viability (600 nM) or ethidium bromide permeability (1 hr; HlgAB/HlgCB 20 μg/ml)
T3 sequence (P25025 1-360): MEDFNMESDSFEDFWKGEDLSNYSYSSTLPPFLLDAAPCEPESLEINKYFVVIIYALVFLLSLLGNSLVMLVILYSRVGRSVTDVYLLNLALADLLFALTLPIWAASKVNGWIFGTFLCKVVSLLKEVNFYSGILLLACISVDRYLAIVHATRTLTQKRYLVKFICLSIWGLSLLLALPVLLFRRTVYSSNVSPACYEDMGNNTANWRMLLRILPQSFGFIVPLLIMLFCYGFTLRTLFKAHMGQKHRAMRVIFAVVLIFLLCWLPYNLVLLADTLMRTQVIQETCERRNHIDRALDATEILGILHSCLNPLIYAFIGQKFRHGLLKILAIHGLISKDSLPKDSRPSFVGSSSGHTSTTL
Procedure: Cell culture conditions and viral transductions. Primary human cells and THP-1 were cultured at 37° C. with 5% CO2 in RPMI supplemented with 10% fetal bovine serum (FBS; Atlanta Biologicals) and penicillin (100 U ml-1) and streptomycin (0.1 mg ml-1) (Mediatech) unless stated otherwise. Overexpression and lentiviral-based knockdown of Cxcr2 or non-target shRNA were performed as previously described (Wan et al., “Cytokine Signals Through PI-3 Kinase Pathway Modulate Th17 Cytokine Production by CCR6+ Human Memory T Cells,” J. Exp. Med. 208:1875-1887 (2011), which is hereby incorporated by reference in its entirety) and maintained in 1.3 μg ml-1 puromycin. HEK293T cells were cultured at 37° C. with 5% CO2 in DMEM (Cellgro) and supplemented as described above.
(§1) Leukotoxin treatments. HEK293T cells, THP-1, primary human PBMCs and primary murine peritoneal exudate cells were treated with LukE, LukD or LukED as previously described (Alonzo et al., “CCR5 is a Receptor for Staphylococcus aureus Leukotoxin ED,” Nature 493:51-55 (2013), which is hereby incorporated by reference in its entirety). In all experiments 1-2×10^5 cells were seeded into 96-well plates. […]

CXCR1 [4] = biological target: T1, CXCR1; assay: Pulldown of His-tagged toxin with cell lysates containing HA-tagged CXCR1; type: binding; design: host or cells: HEK293T; conditions: HA-tagged receptor lysate
Procedure: (§2) Biochemical assays to examine interactions between LukED and CXCR1 or CXCR2. HEK293T cells were transiently transfected with cDNAs encoding N-terminal HA-tagged CXCR1 or CXCR2 (Missouri S&T cDNA Resource Center) using Lipofectamine 2000 (Invitrogen). Forty-eight hours post transfection, cells were detached with PBS containing 5 mM EDTA and membrane proteins were solubilized (approximately 1×10^6 cells per condition) for 1 hour using lysis buffer (PBS+10mM imidazole (Fisher)+1% Brij 010 (Sigma)+1 mM PMSF (Thermo Scientific)+2× protease inhibitor pellets (Roche)). His-tagged LukE and LukD were incubated with equilibrated Ni-NTA resin (Qiagen) for 2 hours, followed by three washes in lysis buffer. Lysates and resin were then incubated together for 2 hours, followed by three washes in lysis buffer and final resuspension of resin in 45 μl of 4×SDS sample buffer. Protein samples were run on 10% SDS-PAGE gels at 80V, followed by transfer to nitrocellulose membranes (GE) for 1 hour at 1 Amp. Membranes were blocked with PBS+0.01% Tween-20+5% non-fat milk for 1 hour and incubated overnight at 4° C. with either anti-His antibody diluted at 1:3,000 in PBS+0.01% Tween-20 for toxins (Cell Sciences) or anti-HA antibody diluted at 1:1,000 in with PBS+0.01% Tween-20+5% non-fat milk for receptors (Covance). […]

human PMNs [5] = assay: Binding and competition assays with GFP-LukE/GFP-LukD on PMNs, flow cytometry; conditions: GFP-LukE 300 nM
Procedure: Binding and competition assays. For binding assays, increasing concentrations of GFP-LukE or GFP-LukD were added to 5×10^4 human PMNs and incubated for 30 minutes on ice, then washed once in FACS buffer and fixed for 15 minutes at room temperature followed by flow cytometric analysis. Mean fluorescence intensity (MFI) of GFP^+ cells was measured to establish the toxin concentration required to achieve saturable binding. For remaining competition assays, increasing concentrations of either LukE or LukS-PV were co-incubated with a constant saturable concentration of LukE-GFP (300 nM) for 30 minutes. Cells were washed once in FACS buffer, fixed for 15 minutes in FACS fixing buffer, washed again in FACS buffer, and binding was assessed by flow cytometry. The mean GFP fluorescent intensity is represented as % GFP^+, based on the maximal fluorescence observed upon incubation with 300 nM GFP-LukE. […] Cells were washed once in FACS buffer, fixed for 15 minutes in FACS fixing buffer, washed again in FACS buffer, and binding was assessed by flow cytometry as described above. Results for these assays were depicted graphically using GraphPad PRISM software (version 5.0f, GraphPad PRISM Software, Inc.).

[6] = tested on: CXCR1 and CXCR2 activation on human PMNs; assay: Calcium mobilization on PMNs (Fluo4-AM, flow cytometry); type: cell-based; conditions: LukE 300 nM
Procedure: Measurements of calcium mobilization. CXCR1 and CXCR2 activation on human PMNs was evaluated using the fluorescent calcium indicator Fluo4-AM (Invitrogen) as previously described (Alonzo et al., “CCR5 is a Receptor for Staphylococcus aureus Leukotoxin ED,” Nature 493:51-55 (2013), which is hereby incorporated by reference in its entirety). Briefly, cells were incubated for 30 minutes at room temperature with 3 μM of Fluo4-AM in Hank's Balanced Salt Solution (HBSS) followed by three washes in HBSS and equilibration at 37° C. for 30 minutes. Baseline calcium levels were analyzed over time on a flow cytometer for 60 seconds. […] The mean fluorescent intensity over 5-second intervals was plotted for graphical display.

CXCR2 [7] = biological target: T3, CXCR2; assay: Pulldown of His-tagged toxin with cell lysates containing HA-tagged CXCR2; type: binding; design: host or cells: HEK293T; conditions: HA-tagged receptor lysate
Procedure: as §2

monocytes within PBMCs = assay: LukED treatment of human PBMCs, CD14/CD3 flow cytometry; type: cell-based; conditions: CCR5+-gated PBMC; LukED 75 nM plus MVC 100 ng/mL
Procedure: Isolation of PBMCs. Blood was obtained as buffy coats with the consent of de-identified donors from the New York Blood Center. PBMCs were isolated from blood using a Ficoll-Paque PLUS gradient (GE Amersham) and gated on CCR5^+ cells, followed by anti-CD3 and CD14 cell surface staining for lymphocyte and monocyte populations. Cells were then incubated with LukED (75 nM) in the presence or absence of maraviroc (MVC, 100 ng ml-1).
CCR5 inhibitor and ligands. Maraviroc was obtained through the AIDS Research and Reference Reagent Program, Division of AIDS (NIAID, NIH) and used at a final concentration of 100 ng ml-1.
FACS analysis. Cell staining was performed as described previously (Alonzo et al., “CCR5 is a Receptor for Staphylococcus aureus Leukotoxin ED,” Nature 493:51-55 (2013), which is hereby incorporated by reference in its entirety). FACS data were obtained using FACSDiva software on a LSRII flow cytometer (BD Biosciences). Data was analyzed using FlowJo software (Treestar).
as §1

CCR5^+ cells = conditions: cited from earlier work
human RBCs = assay: LukED-mediated lysis of human red blood cells; type: cell-based; conditions: n=3 donors

HlgAB: S. aureus γ-hemolysin bicomponent leukotoxin, HlgA (SEQ ID NO:6) plus HlgB (SEQ ID NO:16)
susceptibility of CXCR1-transfected HEK293T cells to toxin (CXCR1 [1]): rendered cells susceptible
cytotoxic activity against hPMNs (human PMNs [2]): exhibited potent cytotoxic activity against hPMNs
susceptibility of DARC-transfected HEK293T cells to toxin (DARC): rendered cells susceptible
susceptibility of CXCR2-transfected HEK293T cells to toxin (CXCR2 [3]): rendered cells susceptible

LukE: S. aureus Leukocidin E subunit, soluble protein SEQ ID NO:4
complex formation with CXCR1 (pulldown, immunoblot) (CXCR1 [4]): forms complexes with both CXCR1 and CXCR2
competition with GFP-LukE binding to PMNs (human PMNs [5]): competed off
calcium mobilization on PMNs [6]: unable to elicit calcium mobilization
complex formation with CXCR2 (pulldown, immunoblot) (CXCR2 [7]): forms complexes with both CXCR1 and CXCR2

Maraviroc [reference compound]
protection of monocytes from LukED-mediated death (monocytes within PBMCs): does not protect monocytes from LukED-mediated death
block of LukED mediated killing of CCR5+ cells (CCR5^+ cells): known to block LukED mediated killing of CCR5^+ cells

B1: HlgA^LukE-DR4/HlgB: HlgA with its DR4 domain swapped with LukE DR4, mixed equimolar with HlgB (protein)
chain 1: ENKIEDIGQGAEIIKRTQDITSKRLAITQNIQFDFVKDKKYNKDALVVKMQGFISSRTTYSDLKKYPYIKRMIWPFQYNISLKTKDSNVDLINYLPKNKIDSADVSQKLGYNIGGNFQSAPSIGGSGSFNYSKTISYNQKNYVTEVESQNSKGVKWGVKANSFVTPNGQVSAYDQYLFAQSPNGPTGSAREYFAPDNQLPPLIQSGFNPSFITTLSHERGKGDKSEFEITYGRNMDATYAYVTRHRLAVDRKHDAFKNRNVTVKYEVNWKTHEVKIKSITPK
chain 2: EGKITPVSVKKVDDKVTLYKTTATADSDKFKISQILTFNFIKDKSYDKDTLVLKATGNINSGFVKPNPNDYDFSKLYWGAKYNVSISSQSNDSVNVVDYAPKNQNEEFQVQNTLGYTFGGDISISNGLSGGLNGNTAFSETINYKQESYRTTLSRNTNYKNVGWGVEAHKIMNNGWGPYGRDSFHPTYGNELFLAGRQSSAYAGQNFIAQHQMPLLSRSNFNPEFLSVLSHRQDGAKKSKITVTYQREMDLYQIRWNGFYWAGANYKNFKTRTFKSTYEIDWENHKVKLLDTKETENNK
modifications: left off: small tags and cut ends
cytotoxic activity against hPMNs (human PMNs [2]): exhibited potent cytotoxic activity against hPMNs

B2: DARC: purified Duffy antigen receptor for chemokines (OriGene Technologies Inc.) (protein)
chain: MGNCLHRAELSPSTENSSQLDFEDVWNSSYGVNDSFPDGDYGANLEAAAPCHSCNLLDDSALPFFILTSVLGILASSTVLFMLFRPLFRWQLCPGWPVLAQLAVGSALFSIVVPVLAPGLGSTRSSALCSLGYCVWYGSAFAQALLLGCHASLGHRLGAGQVPGLTLGLTVGIWGVAALLTLPVTLASGASGGLCTLIYSTELKALQATHTVACLAIFVLLPLGLFGAKGLKKALGMGPGPWMNILWAWFIFWWPHGVVLGLDFLVRSKLLLLSTCLAQQALDLLLNLAEALAILHCVATPLLLALFCHQATRTLLPSLPLPEGWSSHLDTLGSKS
inhibition of LukED-mediated lysis of RBCs (human RBCs): fully neutralize LukED-mediated lysis of RBCs
